Values quoted from earlier work as cited in US12544428B2, “Controlled-release CNP agonists with reduced side-effects” (ASCENDIS PHARMA GROWTH DISORDERS A/S, priority 2016, dated 2026).
Bridge positions count the residues as written; N and C are the ends. Ends that are not written are not given here.

Details: Phase 1 study, healthy volunteers; cited from earlier work

Substance: BMN-111: a CNP variant with increased NEP resistance in development for the treatment of achondroplasia (PGQEHPNARKYKGANKKGLSKGCFGLKLDRIGSMSGLGC; disulfide 23-39; chains of the INN, looked up)
- hypotension: mild hypotension
